Results reported in paper PMC8960804.

Target: RexT, redox-sensing transcriptional regulator of Nostoc (Anabaena) sp. PCC 7120, tag-free, reduced (Nostoc (Anabaena) sp. PCC 7120)
Assay: SEC; HiLoad 16/600 Superdex 200 pg, 50 mM HEPES pH 7.5, 100 mM NaCl, 5% v/v glycerol, 2 mM DTT

RexT, redox-sensing transcriptional regulator of Nostoc (Anabaena) sp. PCC 7120, tag-free, reduced (natural protein)
stoichiometry N: 2
